Measurements from FireProtDB (doi:10.1110/ps.0205902).

Details: Aspergillus oryzae (strain ATCC 42149 / RIB 40), pH 3, 25 °C, Urea, CD, Glycine-HCl 3 mM, reversible: yes, whole UniProt chain shown

B1: Guanyl-specific ribonuclease T1 wild type, P00651 (protein)
chain: MMYSKLLTLTTLLLPTALALPSLVERACDYTCGSNCYSSSDVSTAQAAGYQLHEDGETVGSNSYPHKYNNYEGFDFSVSSPYYEWPILSSGDVYSGGSPGADRVVFNENNQLAGVITHTGASGNNFVECT
**Q.** Which denaturant m value (Na2SO4 0.01 M) does the source give for B1 here?
**A.** 1.67 kcal/mol/M

**Q.** What about the “denaturant midpoint (higher = more stable)” value (from here on “denaturant midpoint”) (Na2SO4 0.01 M) of the same protein?
**A.** 2.55 M

**Q.** And the unfolding free energy (Na2SO4 0.01 M)?
**A.** 4.2 kcal/mol

**Q.** What about the denaturant m value (Na2SO4 0.20 M) of the same protein?
**A.** 1.52 kcal/mol/M

**Q.** What about the “denaturant midpoint” value (Na2SO4 0.20 M) of the same protein?
**A.** 4.21 M

**Q.** And the unfolding free energy (Na2SO4 0.20 M)?
**A.** 6.38 kcal/mol

**Q.** What about the denaturant m value (Na2SO4 0.50 M) of the same protein?
**A.** 1.5 kcal/mol/M

**Q.** What about the “denaturant midpoint” value (Na2SO4 0.50 M) of the same protein?
**A.** 5.28 M

**Q.** What about the unfolding free energy (Na2SO4 0.50 M) of the same protein?
**A.** 7.91 kcal/mol

**Q.** What about the denaturant m value (Na2SO4 0.80 M) of the same protein?
**A.** 1.47 kcal/mol/M

**Q.** And the “denaturant midpoint” value (Na2SO4 0.80 M)?
**A.** 5.81 M

**Q.** And the unfolding free energy (Na2SO4 0.80 M)?
**A.** 8.56 kcal/mol

**Q.** And the denaturant m value (NaCl 0.01 M)?
**A.** 2.29 kcal/mol/M

**Q.** And the “denaturant midpoint” value (NaCl 0.01 M)?
**A.** 1.43 M

**Q.** What about the unfolding free energy (NaCl 0.01 M) of the same protein?
**A.** 3.26 kcal/mol

**Q.** And the denaturant m value (NaCl 0.25 M)?
**A.** 1.85 kcal/mol/M

**Q.** And the “denaturant midpoint” value (NaCl 0.25 M)?
**A.** 2 M

**Q.** What about the unfolding free energy (NaCl 0.25 M) of the same protein?
**A.** 3.69 kcal/mol

**Q.** And the denaturant m value (NaCl 0.50 M)?
**A.** 1.8 kcal/mol/M

**Q.** And the “denaturant midpoint” value (NaCl 0.50 M)?
**A.** 2.49 M

**Q.** And the unfolding free energy (NaCl 0.50 M)?
**A.** 4.48 kcal/mol

**Q.** And the denaturant m value (NaCl 0.75 M)?
**A.** 1.75 kcal/mol/M

**Q.** What about the “denaturant midpoint” value (NaCl 0.75 M) of the same protein?
**A.** 2.91 M

**Q.** What about the unfolding free energy (NaCl 0.75 M) of the same protein?
**A.** 5.07 kcal/mol

**Q.** And the denaturant m value (NaCl 1.00 M)?
**A.** 1.64 kcal/mol/M

**Q.** And the “denaturant midpoint” value (NaCl 1.00 M)?
**A.** 3.21 M

**Q.** And the unfolding free energy (NaCl 1.00 M)?
**A.** 5.28 kcal/mol

**Q.** What about the denaturant m value (NaSCN 0.01 M) of the same protein?
**A.** 2.21 kcal/mol/M

**Q.** And the “denaturant midpoint” value (NaSCN 0.01 M)?
**A.** 1.44 M

**Q.** And the unfolding free energy (NaSCN 0.01 M)?
**A.** 3.05 kcal/mol

**Q.** And the denaturant m value (NaSCN 0.05 M)?
**A.** 1.87 kcal/mol/M

**Q.** What about the “denaturant midpoint” value (NaSCN 0.05 M) of the same protein?
**A.** 1.55 M

**Q.** What about the unfolding free energy (NaSCN 0.05 M) of the same protein?
**A.** 2.91 kcal/mol

**Q.** What about the denaturant m value (NaSCN 0.25 M) of the same protein?
**A.** 1.23 kcal/mol/M

**Q.** What about the “denaturant midpoint” value (NaSCN 0.25 M) of the same protein?
**A.** 1.5 M

**Q.** And the unfolding free energy (NaSCN 0.25 M)?
**A.** 1.85 kcal/mol

**Q.** And the denaturant m value (NaSCN 0.50 M)?
**A.** 1.03 kcal/mol/M

**Q.** What about the “denaturant midpoint” value (NaSCN 0.50 M) of the same protein?
**A.** 1.38 M

**Q.** What about the unfolding free energy (NaSCN 0.50 M) of the same protein?
**A.** 1.43 kcal/mol

**Q.** And the denaturant m value (NaSCN 0.75 M)?
**A.** 1.1 kcal/mol/M

**Q.** And the “denaturant midpoint” value (NaSCN 0.75 M)?
**A.** 1.04 M

**Q.** And the unfolding free energy (NaSCN 0.75 M)?
**A.** 1.14 kcal/mol

**Q.** What about the denaturant m value of the same protein?
**A.** 2.24 kcal/mol/M

**Q.** What about the “denaturant midpoint” value of the same protein?
**A.** 1.48 M

**Q.** And the unfolding free energy?
**A.** 3.28 kcal/mol
